The Kd is the equilibrium constant for the complex coming apart. What is called koff is the rate constant with which the complex falls apart. As usually defined, the kon is the rate constant with which the complex forms. Higher therefore signals faster complex formation.

In experiment [1] the target is SHEP1 cell (surface binding partners of WGA not named). Kind of experiment: z-modulation FFT microscopy on a fixed SHEP1 cell, 10, 20 and 50 µg/ml WGA, first order kinetic model fit.
Experiment [2] addresses glycoprotein on Barrett's esophagus derived CP-D (CP-18821) cells. The experiment can be described thus: cell edge tracking (mechanical deformation) by phase contrast microscopy on fixed CP-D cells, 5 ug/ml WGA, first order kinetics fit.
The target is the same in experiment [3]. Kind of experiment: cell edge tracking (mechanical deformation) by phase contrast microscopy on fixed CP-D cells, 20 ug/ml WGA, first order kinetics fit.

Consider “Wheat germ agglutinin (WGA) (from UniProt P10968 27-197)”, for which the values for the Kd in experiment [1], in experiment [2] and in experiment [3] were 0.125 µM, 0.014 µM and 0.021 µM, respectively. Also, the values for the koff in experiment [1], in experiment [2] and in experiment [3] were 0.013 s⁻¹, 0.00156 s⁻¹ and 0.0029 s⁻¹, respectively. Besides, the kon amounted to 14000 M⁻¹ s⁻¹ in experiment [1], 109000 M⁻¹ s⁻¹ in experiment [2] and 140000 M⁻¹ s⁻¹ in experiment [3].

Source of the values: US20160169873A1.
